Target: Rl-SRDI565 sulfoquinovosidase, K375A/K376A variant (RlSQase*) (Rhizobium leguminosarum bv. trifolii SRDI565)
Test: SEC-MALS

stoichiometry N: 2
Substance: Rl-SRDI565 sulfoquinovosidase, K375A/K376A variant (RlSQase*) (enzyme)
